Experimental data as given in publication doi:10.1101/2025.03.07.642025, “The TONSL-MMS22L complex and FANCM form an interdependent complex on chromatin to counter replication stress” (bioRxiv, 2025).

B1: MMS22L (natural protein, human (endogenous in HeLa), UniProt Q6ZRQ5 1-1243, looked up)
chain: MENCSAASTFLTDSLELELGTEWCKPPYFSCAVDNRGGGKHFSGESYLCSGALKRLILNLDPLPTNFEEDTLEIFGIQWVTETALVNSSRELFHLFRQQLYNLETLLQSSCDFGKVSTLHCKADNIRQQCVLFLHYVKVFIFRYLKVQNAESHVPVHPYEALEAQLPSVLIDELHGLLLYIGHLSELPSVNIGAFVNQNQIKLFPPSWHLLHLHLDIHWLVLEILYMLGEKLKQVVYGHQFMNLASDNLTNISLFEEHCETLLCDLISLSLNRYDKVRSSESLMSDQCPCLCIKELWVLLIHLLDHRSKWFVSESFWNWLNKLLKTLLEKSSDRRRSSMPVIQSRDPLGFSWWIITHVASFYKFDRHGVPDEMRKVESNWNFVEELLKKSISVQGVILEEQLRMYLHCCLTLCDFWEPNIAIVTILWEYYSKNLNSSFSISWLPFKGLANTMKSPLSMLEMVKTCCCDKQDQELYKSSSSYTIFLCILAKVVKKAMKSNGPHPWKQVKGRIYSKFHQKRMEELTEVGLQNFFSLFLLLAAVAEVEDVASHVLDLLNFLKPAFVTSQRALIWKGHMAFLLMYAQKNLDIGVLAEKFSCAFREKAKEFLVSKNEEMVQRQTIWTLLSIYIDGVQEVFETSYCLYPSHEKLLNDGFSMLLRACRESELRTVLSFLQAVLARIRSMHQQLCQELQRDNVDLFVQSSLSAKERHLAAVASALWRHFFSFLKSQRMSQVVPFSQLADAAADFTLLAMDMPSTAPSDFQPQPVISIIQLFGWDDIICPQVVARYLSHVLQNSTLCEALSHSGYVSFQALTVRSWIRCVLQMYIKNLSGPDDLLIDKNLEEAVEKEYMKQLVKLTRLLFNLSEVKSIFSKAQVEYLSISEDPKKALVRFFEAVGVTYGNVQTLSDKSAMVTKSLEYLGEVLKYIKPYLGKKVFSAGLQLTYGMMGILVKSWAQIFATSKAQKLLFRIIDCLLLPHAVLQQEKELPAPMLSAIQKSLPLYLQGMCIVCCQSQNPNAYLNQLLGNVIEQYIGRFLPASPYVSDLGQHPVLLALRNTATIPPISSLKKCIVQVIRKSYLEYKGSSPPPRLASILAFILQLFKETNTDIYEVELLLPGILKCLVLVSEPQVKRLATENLQYMVKACQVGSEEEPSSQLTSVFRQFIQDYGMRYYYQVYSILETVATLDQQVVIHLISTLTQSLKDSEQKWGLGRNIAQREAYSKLLSHLGQMGQDEMQRLENDNT
notes: MMS22L, human, endogenous in HeLa cells; source: endogenous, HeLa
B2: TONSL (natural protein, human (endogenous in HeLa), UniProt Q96HA7 1-1378, looked up)
chain: MSLERELRQLSKAKAKAQRAGQRREEAALCHQLGELLAGHGRYAEALEQHWQELQLRERADDPLGCAVAHRKIGERLAEMEDYPAALQHQHQYLELAHSLRNHTELQRAWATIGRTHLDIYDHCQSRDALLQAQAAFEKSLAIVDEELEGTLAQGELNEMRTRLYLNLGLTFESLQQTALCNDYFRKSIFLAEQNHLYEDLFRARYNLGTIHWRAGQHSQAMRCLEGARECAHTMRKRFMESECCVVIAQVLQDLGDFLAAKRALKKAYRLGSQKPVQRAAICQNLQHVLAVVRLQQQLEEAEGRDPQGAMVICEQLGDLFSKAGDFPRAAEAYQKQLRFAELLDRPGAERAIIHVSLATTLGDMKDHHGAVRHYEEELRLRSGNVLEEAKTWLNIALSREEAGDAYELLAPCFQKALSCAQQAQRPQLQRQVLQHLHTVQLRLQPQEAPETETRLRELSVAEDEDEEEEAEEAAATAESEALEAGEVELSEGEDDTDGLTPQLEEDEELQGHLGRRKGSKWNRRNDMGETLLHRACIEGQLRRVQDLVRQGHPLNPRDYCGWTPLHEACNYGHLEIVRFLLDHGAAVDDPGGQGCEGITPLHDALNCGHFEVAELLLERGASVTLRTRKGLSPLETLQQWVKLYRRDLDLETRQKARAMEMLLQAAASGQDPHSSQAFHTPSSLLFDPETSPPLSPCPEPPSNSTRLPEASQAHVRVSPGQAAPAMARPRRSRHGPASSSSSSEGEDSAGPARPSQKRPRCSATAQRVAAWTPGPASNREAATASTSRAAYQAAIRGVGSAQSRLGPGPPRGHSKALAPQAALIPEEECLAGDWLELDMPLTRSRRPRPRGTGDNRRPSSTSGSDSEESRPRARAKQVRLTCMQSCSAPVNAGPSSLASEPPGSPSTPRVSEPSGDSSAAGQPLGPAPPPPIRVRVQVQDHLFLIPVPHSSDTHSVAWLAEQAAQRYYQTCGLLPRLTLRKEGALLAPQDLIPDVLQSNDEVLAEVTSWDLPPLTDRYRRACQSLGQGEHQQVLQAVELQGLGLSFSACSLALDQAQLTPLLRALKLHTALRELRLAGNRLGDKCVAELVAALGTMPSLALLDLSSNHLGPEGLRQLAMGLPGQATLQSLEELDLSMNPLGDGCGQSLASLLHACPLLSTLRLQACGFGPSFFLSHQTALGSAFQDAEHLKTLSLSYNALGAPALARTLQSLPAGTLLHLELSSVAAGKGDSDLMEPVFRYLAKEGCALAHLTLSANHLGDKAVRDLCRCLSLCPSLISLDLSANPEISCASLEELLSTLQKRPQGLSFLGLSGCAVQGPLGLGLWDKIAAQLRELQLCSRRLCAEDRDALRQLQPSRPGPGECTLDHGSKLFFRRL
notes: TONSL, human, endogenous in HeLa cells; source: endogenous, HeLa

Assays:
[1] = molecular target: T1, FANCM (human (endogenous in HeLa), UniProt Q8IYD8 1-2048); experiment: proximity ligation; Duolink PLA in HeLa cells treated with 1.5 uM TMP and UVA (3 J/cm2), 60 min in fresh medium before fixation; conditions: partners not purified
T1 construct: FANCM, human, endogenous in HeLa cells; also called endogenous FANCM; source: endogenous, HeLa
T1 sequence (Q8IYD8 whole entry): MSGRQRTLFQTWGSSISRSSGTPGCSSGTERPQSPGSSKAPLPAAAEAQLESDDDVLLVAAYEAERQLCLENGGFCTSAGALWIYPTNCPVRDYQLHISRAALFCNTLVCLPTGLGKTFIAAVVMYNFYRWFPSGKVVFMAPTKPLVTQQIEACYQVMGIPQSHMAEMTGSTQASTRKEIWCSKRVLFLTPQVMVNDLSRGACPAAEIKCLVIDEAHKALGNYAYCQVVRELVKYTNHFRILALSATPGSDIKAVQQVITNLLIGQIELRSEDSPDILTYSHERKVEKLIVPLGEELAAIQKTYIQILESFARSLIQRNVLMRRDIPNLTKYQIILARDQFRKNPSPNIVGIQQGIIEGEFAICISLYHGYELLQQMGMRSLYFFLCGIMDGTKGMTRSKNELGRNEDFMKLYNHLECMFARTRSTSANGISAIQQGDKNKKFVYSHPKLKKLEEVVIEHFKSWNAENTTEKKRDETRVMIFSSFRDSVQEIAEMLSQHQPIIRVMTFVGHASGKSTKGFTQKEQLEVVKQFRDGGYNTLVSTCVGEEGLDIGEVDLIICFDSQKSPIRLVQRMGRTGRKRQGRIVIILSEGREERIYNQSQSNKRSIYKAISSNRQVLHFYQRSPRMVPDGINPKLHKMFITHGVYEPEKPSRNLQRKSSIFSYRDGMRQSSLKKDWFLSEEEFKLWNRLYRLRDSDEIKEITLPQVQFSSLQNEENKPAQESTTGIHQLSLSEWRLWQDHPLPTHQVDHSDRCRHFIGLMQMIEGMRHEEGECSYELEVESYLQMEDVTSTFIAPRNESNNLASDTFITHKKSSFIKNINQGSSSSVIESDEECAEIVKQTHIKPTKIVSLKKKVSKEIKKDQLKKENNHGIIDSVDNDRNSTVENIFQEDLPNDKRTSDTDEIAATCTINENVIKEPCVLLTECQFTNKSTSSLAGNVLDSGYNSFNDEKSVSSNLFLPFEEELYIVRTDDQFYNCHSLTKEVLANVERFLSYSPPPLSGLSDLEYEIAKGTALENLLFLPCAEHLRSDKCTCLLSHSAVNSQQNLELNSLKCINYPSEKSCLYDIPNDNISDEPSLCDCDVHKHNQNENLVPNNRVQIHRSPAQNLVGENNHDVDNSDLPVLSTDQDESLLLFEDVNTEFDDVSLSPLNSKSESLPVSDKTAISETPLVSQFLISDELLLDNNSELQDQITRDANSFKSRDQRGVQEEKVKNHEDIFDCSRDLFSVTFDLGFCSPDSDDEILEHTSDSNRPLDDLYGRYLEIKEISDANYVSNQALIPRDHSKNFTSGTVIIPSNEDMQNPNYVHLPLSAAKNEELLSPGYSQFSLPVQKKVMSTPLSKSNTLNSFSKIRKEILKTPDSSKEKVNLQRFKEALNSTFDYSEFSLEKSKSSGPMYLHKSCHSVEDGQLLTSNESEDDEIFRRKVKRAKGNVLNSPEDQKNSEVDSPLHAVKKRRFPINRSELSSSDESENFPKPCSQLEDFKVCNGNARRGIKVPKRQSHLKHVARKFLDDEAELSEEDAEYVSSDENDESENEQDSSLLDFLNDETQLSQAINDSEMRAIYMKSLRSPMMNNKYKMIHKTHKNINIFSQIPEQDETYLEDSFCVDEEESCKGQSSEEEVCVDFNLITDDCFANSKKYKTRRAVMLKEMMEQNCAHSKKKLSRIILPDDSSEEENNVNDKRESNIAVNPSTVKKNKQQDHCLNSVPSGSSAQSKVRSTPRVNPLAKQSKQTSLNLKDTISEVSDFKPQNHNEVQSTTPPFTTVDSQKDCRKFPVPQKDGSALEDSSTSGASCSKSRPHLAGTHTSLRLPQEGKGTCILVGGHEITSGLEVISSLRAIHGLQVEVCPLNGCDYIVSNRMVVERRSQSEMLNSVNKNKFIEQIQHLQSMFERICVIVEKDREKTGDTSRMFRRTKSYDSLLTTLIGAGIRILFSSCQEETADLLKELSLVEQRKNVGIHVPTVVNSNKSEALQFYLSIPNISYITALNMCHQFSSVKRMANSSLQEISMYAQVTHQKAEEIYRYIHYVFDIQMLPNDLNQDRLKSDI

[2] = molecular target: T1, FANCM; experiment: proximity ligation; PLA in TMP/UVA-treated cells, early and late S phase sorted by flow cytometry; PCNA as marker of the S phase stage; conditions: partners not purified

| Binder | fold increase of PLA signals, TMP/UVA-treated over UVA-treated cells [1] | fold increase of PLA signals, late S over early S phase [2] |
| --- | --- | --- |
| B1 | ~20 fold | ~20 fold |
| B2 | ~20 fold | ~20 fold |
